This is an account of results in patent US10064926B2, “Peptides and combination of peptides for use in immunotherapy against hepatocellular carcinoma (HCC) and other cancers” (Immatics biotechnologies GmbH, priority 2014, dated 2018).

The first assay deals with HLA-A*02 (Homo sapiens, UniProt P04439, D140Y/D185E/D98H/E176V/E277Q/G131W/G231S/I119V/I121R/I166T/I218V/N151K/N90K/P208A/P217A/Q86G/Q94H/R138H/R169H). Kind of assay: UV-ligand exchange / peptide binding to MHC class I (beta2m ELISA). The note with it: Table 10A; peptide exchange yield, UV-ligand exchange, β2m ELISA. An excerpt:
Candidate peptides for T cell based therapies according to the present invention were further tested for their MHC binding capacity (affinity). The individual peptide-MHC complexes were produced by UV-ligand exchange, where a UV-sensitive peptide is cleaved upon UV-irradiation, and exchanged with the peptide of interest as analyzed. Only peptide candidates that can effectively bind and stabilize the peptide-receptive MHC molecules prevent dissociation of the MHC complexes. To determine the yield of the exchange reaction, an ELISA was performed based on the detection of the light chain (β2m) of stabilized MHC complexes. The assay was performed as generally described in Rodenko et al. (Rodenko B, Toebes M, Hadrup S R, van Esch W J, Molenaar A M, Schumacher T N, Ovaa H. Generation of peptide-MHC class I complexes through UV-mediated ligand exchange. Nat Protoc. 2006; 1(3):1120-32).
96 well MAXISorp plates (NUNC) were coated over night with 2 ug/ml streptavidin in PBS at room temperature, washed 4× and blocked for 1 h at 37° C. in 2% BSA containing blocking buffer. Refolded HLA-A*0201/MLA-001 monomers served as standards, covering the range of 15-500 ng/ml. Peptide-MHC monomers of the UV-exchange reaction were diluted 100 fold in blocking buffer. Samples were incubated for 1 h at 37° C., washed four times, incubated with 2 ug/ml HRP conjugated anti-β2m for 1 h at 37° C., washed again and detected with TMB solution that is stopped with […]. Absorption was measured at 450 nm. Candidate peptides that show a high exchange yield (preferably higher than 50%, most preferred higher than 75%) are generally preferred for a generation and production of antibodies or fragments thereof, and/or T cell receptors or fragments thereof, as they show sufficient avidity to the MHC molecules and prevent dissociation of the MHC complexes.
On the technique in general: In an ELISA, binding on a coated surface is turned into a signal by an enzyme label.
On to “8 (KLLEEATISV; listed as Homo sapiens) [compound 8]”, for which the “Peptide exchange (MHC class I binding score)” value (“Peptide exchange” for short) is listed as “+++ (50%-75% = +++)”.

Staying with this assay, now noted: Table 10B; peptide exchange yield; HLA-A*02 peptides.
For the substance “260 (TLMDMRLSQV; listed as Homo sapiens) [compound 260]”, the “Peptide exchange” value was ““+++” (≥50 = +++)”.

For “148 (GLFAPLVFL; listed as Homo sapiens) [compound 148]”, the “Peptide exchange” value was ““++++” (≥75% = ++++)”.

As to “156 (LLFPHPVNQV; listed as Homo sapiens) [compound 156]”, the “Peptide exchange” value is ““++++” (≥75% = ++++)”.

Take “101 (SLWEGGVRGV; listed as Homo sapiens) [compound 101]”: the “Peptide exchange” value is reported as ““+++” (≥50 = +++)”.

In the case of “9 (ALANQKLYSV; listed as Homo sapiens) [compound 9]”, the “Peptide exchange” value is ““+++” (≥50 = +++)”.

Turning to “21 (QLIEVSSPITL; listed as Homo sapiens) [compound 21]”, the “Peptide exchange” value is reported as ““++++” (≥75% = ++++)”.

Take “118 (YLDDEKNWGL; listed as Homo sapiens) [compound 118]”: the “Peptide exchange” value is given as ““+++” (≥50 = +++)”.

Regarding “109 (TLYALSHAV; listed as Homo sapiens) [compound 109]”, the “Peptide exchange” value is listed as ““+++” (≥50 = +++)”.

For “28 (TLQDHLNSL; listed as Homo sapiens) [compound 28]”, the “Peptide exchange” value is ““+++” (≥50 = +++)”.

Take “257 (SLLEKAGPEL; listed as Homo sapiens) [compound 257]”: the “Peptide exchange” value is ““+++” (≥50 = +++)”.

“168 (SLAVLVPIV; listed as Homo sapiens) [compound 168]”: the “Peptide exchange” value is listed as ““+++” (≥50 = +++)”.

Take “293 (FLASESLIKQI; listed as Homo sapiens) [compound 293]”: the “Peptide exchange” value was ““++” (≥20% = ++)”.

With “72 (KLSEAVTSV; listed as Homo sapiens) [compound 72]”, the “Peptide exchange” value was ““+++” (≥50 = +++)”.

In the case of “124 (LLIDVVTYL; listed as Homo sapiens) [compound 124]”, the “Peptide exchange” value is given as ““++++” (≥75% = ++++)”.

For the substance “80 (LLYEGKLTL; listed as Homo sapiens) [compound 80]”, the “Peptide exchange” value is given as ““++++” (≥75% = ++++)”.

“157 (QLLPNLRAV; listed as Homo sapiens) [compound 157]”: the “Peptide exchange” value was ““+++” (≥50 = +++)”.

Consider “24 (SLAEEKLQASV; listed as Homo sapiens) [compound 24]”, for which the “Peptide exchange” value was ““+++” (≥50 = +++)”.

As for “64 (KILEETLYV; listed as Homo sapiens) [compound 64]”, the “Peptide exchange” value was ““+++” (≥50 = +++)”.

As for “69 (KLLDEVTYLEA; listed as Homo sapiens) [compound 69]”, the “Peptide exchange” value was ““++++” (≥75% = ++++)”.

For the substance “58 (ILADLNLSV; listed as Homo sapiens) [compound 58]”, the “Peptide exchange” value is ““++++” (≥75% = ++++)”.

“77 (LLHEENFSV; listed as Homo sapiens) [compound 77]”: the “Peptide exchange” value is on record as ““+++” (≥50 = +++)”.

“239 (FLLGFIPAKA; listed as Homo sapiens) [compound 239]”: the “Peptide exchange” value was ““+++” (≥50 = +++)”.

For “59 (ILADTFIGV; listed as Homo sapiens) [compound 59]”, the “Peptide exchange” value is recorded as ““+++” (≥50 = +++)”.

“19 (FLEETKATV; listed as Homo sapiens) [compound 19]”: the “Peptide exchange” value is ““+++” (≥50 = +++)”.

As to “182 (YLLHFPMAL; listed as Homo sapiens) [compound 182]”, the “Peptide exchange” value is reported as ““+++” (≥50 = +++)”.

For the substance “290 (NLIDLDDLYV; listed as Homo sapiens) [compound 290]”, the “Peptide exchange” value is on record as ““++++” (≥75% = ++++)”.

Turning to “272 (QQLDSKFLEQV; listed as Homo sapiens) [compound 272]”, the “Peptide exchange” value is ““+++” (≥50 = +++)”.

As to “255 (SLFGQDVKAV; listed as Homo sapiens) [compound 255]”, the “Peptide exchange” value is reported as ““+++” (≥50 = +++)”.

For the substance “165 (RVIEHVEQV; listed as Homo sapiens) [compound 165]”, the “Peptide exchange” value was ““++++” (≥75% = ++++)”.

Regarding “300 (TLAQQPTAV; listed as Homo sapiens) [compound 300]”, the “Peptide exchange” value is reported as ““++” (≥20% = ++)”.

“37 (LLLPLLPPLSP; listed as Homo sapiens) [compound 37]”: the “Peptide exchange” value is ““+++” (≥50 = +++)”.

“236 (ALADKELLPSV; listed as Homo sapiens) [compound 236]”: the “Peptide exchange” value was ““+++” (≥50 = +++)”.

Consider “32 (ALNAVRLLV; listed as Homo sapiens) [compound 32]”, for which the “Peptide exchange” value is given as ““++++” (≥75% = ++++)”.

As for “259 (TLITDGMRSV; listed as Homo sapiens) [compound 259]”, the “Peptide exchange” value was ““++” (≥20% = ++)”.

In the case of “296 (SLLSGRISTL; listed as Homo sapiens) [compound 296]”, the “Peptide exchange” value is recorded as ““+++” (≥50 = +++)”.

Take “35 (SLQESILAQV; listed as Homo sapiens) [compound 35]”: the “Peptide exchange” value is listed as ““+++” (≥50 = +++)”.

For the substance “89 (RLIEEIKNV; listed as Homo sapiens) [compound 89]”, the “Peptide exchange” value is ““++” (≥20% = ++)”.

Regarding “8 (KLLEEATISV; listed as Homo sapiens) [compound 8]”, the “Peptide exchange” value is given as ““+++” (≥50 = +++)”.

Take “103 (SMGDHLWVA; listed as Homo sapiens) [compound 103]”: the “Peptide exchange” value was ““+++” (≥50 = +++)”.

As to “262 (VLPNFLPYNV; listed as Homo sapiens) [compound 262]”, the “Peptide exchange” value is ““+++” (≥50 = +++)”.

For “183 (YLYNNEEQVGL; listed as Homo sapiens) [compound 183]”, the “Peptide exchange” value is reported as ““++” (≥20% = ++)”.

Regarding “113 (VLMDKLVEL; listed as Homo sapiens) [compound 113]”, the “Peptide exchange” value is ““++++” (≥75% = ++++)”.

Consider “284 (KLDAFVEGV; listed as Homo sapiens) [compound 284]”, for which the “Peptide exchange” value is reported as ““+++” (≥50 = +++)”.

For the substance “294 (RLIDLHTNV; listed as Homo sapiens) [compound 294]”, the “Peptide exchange” value is given as ““++++” (≥75% = ++++)”.

Take “129 (SQADVIPAV; listed as Homo sapiens) [compound 129]”: the “Peptide exchange” value is on record as ““+++” (≥50 = +++)”.

As to “52 (GLFNAELLEA; listed as Homo sapiens) [compound 52]”, the “Peptide exchange” value is listed as ““+++” (≥50 = +++)”.

“27 (TLPDFRLPEI; listed as Homo sapiens) [compound 27]”: the “Peptide exchange” value is ““++++” (≥75% = ++++)”.

Consider “47 (FLDTPIAKV; listed as Homo sapiens) [compound 47]”, for which the “Peptide exchange” value is on record as ““++” (≥20% = ++)”.

“133 (ALLEMDARL; listed as Homo sapiens) [compound 133]”: the “Peptide exchange” value is listed as ““+++” (≥50 = +++)”.

On to “29 (YIQDEINTI; listed as Homo sapiens) [compound 29]”, for which the “Peptide exchange” value is given as ““+++” (≥50 = +++)”.

As to “100 (SLVGDIGNVNM; listed as Homo sapiens) [compound 100]”, the “Peptide exchange” value was ““++” (≥20% = ++)”.

Turning to “95 (SICNGVPMV; listed as Homo sapiens) [compound 95]”, the “Peptide exchange” value was ““+++” (≥50 = +++)”.

For the substance “177 (VLDEPYEKV; listed as Homo sapiens) [compound 177]”, the “Peptide exchange” value is ““+++” (≥50 = +++)”.

As to “105 (SVYDGKLLI; listed as Homo sapiens) [compound 105]”, the “Peptide exchange” value is ““++++” (≥75% = ++++)”.

Consider “141 (AMGEKSFSV; listed as Homo sapiens) [compound 141]”, for which the “Peptide exchange” value is given as ““++++” (≥75% = ++++)”.

As to “88 (RLIDRIKTV; listed as Homo sapiens) [compound 88]”, the “Peptide exchange” value is given as ““++” (≥20% = ++)”.

With “169 (SLFEWFHPL; listed as Homo sapiens) [compound 169]”, the “Peptide exchange” value is ““+++” (≥50 = +++)”.

For the substance “145 (FLIAEYFEHV; listed as Homo sapiens) [compound 145]”, the “Peptide exchange” value is reported as ““++” (≥20% = ++)”.
